Data taken from a protein production outcome set (Wang et al. 2014).

Test: label from the status in PepcDB records

| Sequence | protein production |
| --- | --- |
| MSGVTSEPIAMDATRFQHTPYYCEENVYLLCKTLCENGVAEATCSDLFVVFISNEKKQVPLWHQKASTRADGVVLWDYHVICVQRKKESDSEPLVWDLDSTLPFPSPLASYVTETIQPSFQLFAEYQRFFRIVHAPLFFKHFASDRRHMKEPDGSWTAQPPPYEPIVAQDGILHNLSEYIAMSGADTLSSLDPETVTAAISQKLGVVVSHTQLQDLFTKLP | failed |
| MNYRLLVFDFDGTLADSEASIMGAMQLVAKEFGLSEVDCVKARPTIGLSLLRTIEIGLGLEAGDAAAAVELYRRYYKEIAFDSTCLFPGVKETQEQLRQNSLLAIASSKSRQGLLSRMRQFGIVDHFSFIAGAQDISGL | failed |
| MLWGMETAVRPEPAPSPLREHLAAGLKGLHPAYFALVMATGIVSIVSDVLGLREAAALLFWLNVPAYAVLWLLVAARALRYPRALAADLASHQRGPGFFTSVAATCVLGLQLVLLRGDAAAALALWWVGMLLWCACTYAVFVALAVRDPKPTLGEGINGGWLVAVVATQSVVVLGTRALVPRYPGSEAVLFFLASLWLCGGMLYVWMISLIFYRYMFFRFSPSDLMPPYWINMGAVAISVVAGTSLAALAPGSAFLGALLPFVKGLTLMFWATATWWIPMLVLLGIWRHGGPSRIRIAYDPLYWGLVFPLGMYALCTYRLGELFAMPVLPWVARTFATVALAAWLLTAFGLAGRFLQLVVLAVRSLHAERGAAGPQPGSLERMARRS | failed |
| MNAPLSHSRPMMQPSEDKSLATVFPFAGRVLDETPMLLGEGPTFDPASGTAWWFNILERELHELHLASGRKTVHALPFMGSALAKISDSKQLIASDDGLFLRDTATGVLTLHAELESDLPGNRSNDGRMHPSGALWIGTMGRKAETGAGSIYHVAKGKVTKLFADISIPNSICFSPDGTTGYFVDTKVNRLMRVPLDARTGLPTGKAEVFIDSTGIKGGMDGSVCDAEGHIWNARWGEGAVDRYDTDGNHIARYEVPGKQTTCPAFIGPDASRLLVTSAREHLDDDAITANPQHGLTFELGIEVKGRFEPLYRL | not failed |
| MPWLQVRLAITPEQAETYEDALLEVGAVSVTFMDAEDQPIFEPDLGTTPLWSRTHLLALFEADTDETALLAHLALLTGGDLPEHHVEEIADQDWERSWMDNFQPMRFGRRLWIVPSWHAAPEPDAVNLLLDPGLAFGTGTHPTTALCLEWLDGQELAGRQVLDFGCGSGILAIAALLLGAERAVGTDIDPQALEASRDNASRNGIEPARFPVYLPADLPQRQADVLVANILAGPLVSLAPQLTGLVRPGGLLALSGILAEQAEEVRAAYSAHFDLDPTAEREGWIRISGRRRAD | failed |
| SSPPSGCPMHEGKMKGCPVNTEPSGPTCEKKTYSVPAHQERAYEYVECPIRGTAAENKENLDPSNLMPPPNQTPAPDQPFALSTVREESSIPRADSEKKWVYPSEQMFWNAMLKKGWKWKDEDISQKDMYNIIRIHNQNNEQAWKEILKWEALHAAECPCGPSLIRFGGKAKEYSPRARIRSWMGYELPFDRHDWIINRCGTEVRYVIDYYDGGEVNKDYQFTILDVRPALDSLSAVWDRMKVAWWRWTS | failed |
| MIVAFENNVVCSDEKVRDYLLAHHADLKEDQDEDALCLVRLHKEEDIDGTDRVDLAGWREISRELYWTGEQMECNYSIIRFSRKTTSLQMSVVLSTCNQLEWLEKVLWGYEAQDTKNFELIIADDGSRKETYDMLQRITPQLSFQVKHVWHEDKGFRKCDILNKGILAAQADYLLFSDGDCIPRKDFVSTHLCLRRKGRFLSGGYHKLSMDLSKDITKDDILSGRCFDLQWMRGKGMPASFKNNKLTATGFKRWALNTFTPTKASWNGHNASGWLSDILAVNGFDERMQYGGQDREFGERLENYGIHGMQIRYSTVCLHLDHARGYKTKDSIQKNRNIRKHTRGAKVQWASLGIVKDELRGQSVKVNSYYDRYTREEEKLTSYKEKGGFYRHIYSLPCRWRRAKYHDKVVRAYQQDTDAPALSNHSGVIVSLTTFPPRISQLHLMLKSILWQTCPPEKIIVWLSEQEFPGRLNDLPEELKRLMAKGIAFRFVSENFRSHKKYHYVFREYPDSKVITVDDDLIYPRNTVERLLSLSYQYPDTVCGNVIRKIHMDGNSFSVYRKWTKVFTMPVNSSLQNVAIGCGGIYYPPHWYGEELFDWKIISEHCPSADDLWLKANELKRRVKVTGGGEFYPRPIELPQTQNNSLQKKNNGKTNLNDKQWKSLNELWKLDELYCINGK | failed |
| MQSSLSFSCGVKSTMAKSPVEVNLIPIEATPETFAEYGQVIEASRDGAGYGPNDAQLDLSKGIPRLYILRLKETPLGFFKITHHAKVTQCLGSIGGDIWYMGVAKPSLIEDDDDGRRVDTVKAKSGHLYIPPEVEEIRVFRFSGPKFVKLHRGTWHAGPLFSGSSIMDFYNLELSNTNVVDHTSHDFTKNNGVSFRFDT | failed |
| MKELQEKNEQITLLVEMSDIMLACGSQEELSEVMAKYSQRLLQFSSGYLFIMHPSKNYLEKAASWGNPHPHDLTFTPEQCWAIRLGRIHYAGSSRIELMCSHMMFDEQPELSLLCVPLMAQNDIYGLLYLEVGLKFDENQQLLITAFAELTALALANVRLRENLRYQSIR | failed |
| MADDDVLFEDVYELCEVIGKGPFSVVRRCINRETGQQFAVKIVDVAKFTSSPGLSTEDLKREASICHMLKHPHIVELLETYSSDGMLYMVFEFMDGADLCFEIVKRADAGFVYSEAVASHYMRQILEALRYCHDNNIIHRDVKPHCVLLASKENSAPVKLGGFGVAIQLGESGLVAGGRVGTPHFMAPEVVKREPYGKPVDVWGCGVILFILLSGCLPFYGTKERLFEGIIKGKYKMNPRQWSHISESAKDLVRRMLMLDPAERITVYEALNHPWLKERDRYAYKIHLPETVEQLRKFNARRKLKGAVLAAVSSHKFNSFYGDPPEELPDFSEDPTSS | failed |
| MSVNPFQTMRARYFLIVFALLTVVARASNELIENTFHMQNSTFINILIFYILPITWIYFAYKKHRVAFSLFINRNETFNLVQVLYITIMLCVFSYGYLILYMYSFAWITPTFIMNALREPIMDSTGGYVYQVIMVVFIAPIIGEFVFRGFLLQRFAAKWGTSIAIIVVAILFALLHVDFLGAIVFSVVLSIVYIRTNSLLMPIAIHMLNNAFVIGASFLINKEEIMSFADFSNYTTFFPGLIIFITGLNLVLIFLFVNRKYWSKEMPAIYVEQEKSFSDVVGSK | failed |
| KEGVLCLNTKGQITYANSQALKLLGGSLEELYGKTPQHYFTLENTEGKGMGELLERVLCGESTLQEGSGTLYKKERFLAHVEFTLSPIIDKG | failed |
| MCCCVQFLMSFSSVPSAMPAIDPDALESQVAQRLDPHGSDGVQSALSGVVDLEALEERRYGEVLGAIDQRLTQSRYSLLSMVVAGIYFGLLVGLWLVDGSTWSRIALWLAPTLLVAVYGLYATHQTVRQIRHLSETRALLQILMNGPSADG | failed |
| MNLLNLFTYVIPIAICIILPIFIIVTHFQIKSLNKAVTSFNKGDRSNALEILSKLVKSPIKNVKANAYITRERIYFYSRDFELSLRDLLQAIKLRPKTINDVYSFALSYHILGEPERALKYFLRAVELQPNVGISYENLAWFYYLTGKYDKAIENFEKAISMGSTNSVYRSLGITYAKIGDYKKSEEYLKKALDAEPEKPSTHIYFSYLKRKTNDIKLAKEYALKAIELNKNNFDGYKNLAEVNLAEDDYDGFYKNLEIFLEKINFVTNGEDFNDEVYDKVKDNEKFKELIAKTKVIKFKDLGIEIDDKKILNGKFLV | failed |
| ESELACVIALQDITLRVQETERLEKMLEHLPVCMVIMNQNDEVEQINQTGIELLGFERDEIVGNPVDLFIPQEQVESHKALLKKFFQEETVIDTRSLERDFKVKHKSGKLIEIQAVYTPVHFHN | failed |
| MKKKNILFFLLCFLLTSLSAQTLEQARGMYGRGQYAEAKPVFQKYVKSQPANGNYNLWYGVCCLKTGNAAEALKYLETAVKKRIPSGQLYLAQTYNDLYRFQDAVDCYEEYIADLSKRKKPTEEAEQLLEKAKGNLRMLKGVEDVCVIDSFVIDKANFLKAYKISEESGKLFTYNDYFKTKGYHPGTVYETEIGNRIYYSEQGEESLNILSKTKMLDEWSQGKPLPGSINASGNANYPYVLSDGVTIYYASDGDGSMGGYDIFVTRYNTNTDTYLVPENVGMPFNSPYNDYMYVIDEYNNLGWFASDRYQPEDKVCIYVFVPNDSKRTYNYEAMEPEKMIELAQLHSLESTWKDSKIVDDARQRLEAVINHKPAVEQNFDFEFIIDDHSTYHHLTDFKSPKAKQLYLKYEQMEKDYRQQTGKLKSQREGFARSNKDEQSKMAPAIRDLEKRVLQMSEELDKQAIEVRNAEKQNLK | failed |
| MESIGLVEVNSIARGIEAADAMLKAAQVDLLEAKPVCPGKYIVLICGDVAAVQSSVTAGKTMAAHSVLDDFILPNVHPQVLTAISAATPLTLIKALGIIETFSIASLIVAADTAAKTGQVDLVEIRIGMGIGGKSFVTLTGDVASVESSVAAGVMLASERGMLVDKVVIPSPHDHLKRCLC | not failed |
| VGFAPELYCGLENCYDVLEVNREEFDKQKLAKAYRALARKHHPDRVKNKEEKLLAEERFRVIATAYETLKDDEAKTNYDYYLDHPDQRFYNYYQY | not failed |
| ARQVTPGQVMVASTVAKLATIIDGEEDSTQRMGFETILPLREGNGPTLFCFHPASGFAWQFSVLSRYLDPQWSIIGIQSPRPHGPMQTAANLDEVCEAHLATLLEQQPHGPYYLLGYSLGGTLAQGIAARLRARGEQVAFLGLLDTWPPETQNWQEKEANGLDPEVLAEINREREAFLAAQQGSTSTELFTTIEGNYADAVRLLTTAHSVPFDGKATLFVAERTLQEGMTPEQAWAPWIAELDIYRQDCAHVDIISPEYFKEIGPLINTQINN | failed |
| MTEDERFAWLQLAFTPYIGAESFLLLMRSFGSAQNALSAPAEQVAPAVRHKHALEAWRNAEKRALARQAAEAALEWEMRDGCRLMLLQDEDFPEMLTQGLTAPPVLFLRGNVRLLHKPSAAIVGSRHATPQAMRIAKDFGRALGGKGIPTVSGMASGIDTAAHQGALEAEGGTVAVWGTGIDRIYPPANKNLAYEIAEKGLIVSEFPIGTRPYAGNFPRRNRLIAALSQVTLVVEAALESGSLITAGLAAEMGREVMAVPGSIDNPHSKGCHKLIKDGAKLTECLDDILNECPGLLQNTGASSYSINKDTPDTGRRAVQTAYAPPPAAKMPSEGAAGGTAVGGILDKMGFDPVHPDVLAGQLAMPAADLYAALLELELDGSVAAMPGGRYQRIRT | failed |
| MSLTKIDAYAHILPAKYYQKMLSVEPNIPNMFPFIKIKTLMDLDERLTKWPDQNTKQVISLANISPEDFTDSKTSAELCQSANEELSNLVDQHPGKFAGAVAILPMNNIESACKVISSIKDDENLVGAQIFTRHLGKSIADKEFRPVLAQAAKLHVPLWMHPVFDARKPDNNLVFSWEYELSQAMLQLVQSDLFQDYPNLKILVHHAGAMVPFFSGRIDHILDEKHAQDFKKFYVDTAILGNTPALQLAIDYYGIDHVLFGTDAPFAVMPSGADQIITQAINDLTISDKDKQKIFHDNYYSLIKEGHHHHHH | not failed |
| MFKHCLICTDFSDGLQRLAGFVEELSLSGITKLIFLHTVSVWEDEHIADVDESKLKEAKTYLESLVGQVPPGIEVKVEVSSVRYVDLVNQLVEQEAIDLIINGMPVRSNLESKLFGSHTLSLAKSTKVPVMILRPQLVSTYTVEEMALRCQHLWRNLLVPYDASSAGNYLIERLKSALEKAPPGKVESCYFLSILEDGMRRPELLEIRRQEAEAKLAEIKQQFSPLVPNIITEVRHGSPVQEILDTAFVNDITAIAVASRRATLLDWTVPSLTDSILNRSWFPLLFFSPKG | failed |
| MKPRIYVKVKPERLGAVIGPRGEVKAEIMRRTGTVITVDTENSMVIVEPEAEGIPPVNLMKAAEVVKAISLGFPPEKAFRLLEEDQILVVVDLKQVVGDSQNHLKRIKGRIIGEGGRARRTIEEMTDTYINVGEYEVAIIGDYERAMAAKQAIEMLAEGRMHSTVYRHLERIMREIKRRERLKMWAREEL | not failed |
| MTKTALVLGTVATLAVASVAAPAPAEARNGIGPFIGGLAAGALIAGVASNAYAYGPGYGYYGGGPYYGGGPYYGYAPRYVGYYGGPAYYGGGYGWGGPRYYRPRPVYYGYRSYYRPYRGGYYGAPVIRAGYGPGWGGHRHWHHHRHW | failed |
